Reference: patent US20180086804A1 (COMMISSARIAT A L ENERGIE ATOMIQUE ET AUX ENERGIES …, published 2018)
Where two headings read alike, the source gives them in different places. No end group written: not given here.

Key:
[1] = target: T1, HLA-DR13 (HLA-DRB1*13:01) (human); test: competition ELISA vs biotin-B1 21-36
T1 construct: mature; purified from homozygous EBV-transformed lymphoblastoid cells with antibody L243

[2] = target: T2, HLA-DR11 (HLA-DRB1*11:01) (human); test: competition ELISA vs biotin-HA 306-318;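 also: HLA and competitor incubated 24 to 72 h, maximal signal taken from wells lacking competitor, background from wells lacking HLA molecule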
T2 construct: mature; purified from homozygous EBV-transformed lymphoblastoid cells with antibody L243

[3] = target: T3, HLA-DRB5 (HLA-DRB5*01:01) (human); test: competition ELISA vs biotin-HA 306-318;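 also: HLA and competitor incubated 24 to 72 h, maximal signal taken from wells lacking competitor, background from wells lacking HLA molecule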
T3 construct: mature; purified from homozygous EBV-transformed lymphoblastoid cells with antibody L243

[4] = target: T4, HLA-DR7 (HLA-DRB1*07:01) (human); test: competition ELISA vs biotin-YKL
T4 construct: mature; purified from homozygous EBV-transformed lymphoblastoid cells with antibody L243

[5] = target: T5, HLA-DR4 (HLA-DRB1*04:01) (human); test: competition ELISA vs biotin-HA 306-318;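 also: HLA and competitor incubated 24 to 72 h, maximal signal taken from wells lacking competitor, background from wells lacking HLA molecule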
T5 construct: mature; purified from homozygous EBV-transformed lymphoblastoid cells with antibody L243

[6] = target: T6, HLA-DR1 (HLA-DRB1*01:01) (human); test: competition ELISA vs biotin-HA 306-318;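 also: HLA and competitor incubated 24 to 72 h, maximal signal taken from wells lacking competitor, background from wells lacking HLA molecule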
T6 construct: mature; class II HLA molecule purified from homozygous EBV-transformed lymphoblastoid cells with antibody L243

[7] = target: T7, HLA-DR15 (HLA-DRB1*15:01) (human); test: competition ELISA vs biotin-A3 152-166
T7 construct: mature; purified from homozygous EBV-transformed lymphoblastoid cells with antibody L243

[8] = target: T7, HLA-DR15 (HLA-DRB1*15:01); test: competition ELISA vs biotin-A3 152-166; remark: listed apart in the source
[9] = target: T4, HLA-DR7 (HLA-DRB1*07:01); test: competition ELISA vs biotin-YKL; remark: listed apart in the source
[10] = target: T2, HLA-DR11 (HLA-DRB1*11:01); test: competition ELISA vs biotin-HA 306-318; remark: listed apart in the source
[11] = target: T5, HLA-DR4 (HLA-DRB1*04:01); test: competition ELISA vs biotin-HA 306-318; remark: listed apart in the source
[12] = target: T3, HLA-DRB5 (HLA-DRB5*01:01); test: competition ELISA vs biotin-HA 306-318; remark: listed apart in the source
[13] = target: T6, HLA-DR1 (HLA-DRB1*01:01); test: competition ELISA vs biotin-HA 306-318; remark: listed apart in the source
[14] = target: T8, HLA-DRB3 (HLA-DRB3*01:01) (human); test: competition ELISA vs biotin-LOL 191-210
T8 construct: mature; purified from homozygous EBV-transformed lymphoblastoid cells with antibody L243

[15] = target: T9, HLA-DP401 (HLA-DPB1*04:01) (human, UniProt P20036 29-222); test: competition ELISA vs biotin-Oxy 271-287;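 also: plates incubated 24–72 h, maximum binding defined by wells lacking competitor, background by wells lacking HLA molecule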
T9 construct: mature; purified from homozygous EBV-transformed lymphoblastoid cells with antibody B7/21

[16] = target: T10, HLA-DP402 (HLA-DPB1*04:02) (human, UniProt P20036 29-222); test: competition ELISA vs biotin-Oxy 271-287;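 also: plates incubated 24–72 h, maximum binding defined by wells lacking competitor, background by wells lacking HLA molecule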
T10 construct: mature; purified from homozygous EBV-transformed lymphoblastoid cells with antibody B7/21

[17] = target: T11, HLA-DR3 (HLA-DRB1*03:01) (human); test: competition ELISA vs biotin-MT 2-16
T11 construct: mature; purified from homozygous EBV-transformed lymphoblastoid cells with antibody L243

[18] = target: T11, HLA-DR3 (HLA-DRB1*03:01); test: competition ELISA vs biotin-MT 2-16; remark: listed apart in the source
[19] = target: T12, HLA-DRB4 (HLA-DRB4*01:01) (human); test: competition ELISA vs biotin-E2/E168
T12 construct: mature; purified from homozygous EBV-transformed lymphoblastoid cells with antibody L243

NKVSEQLQAKMPMKK-NH2 [CCNB1 50-64]
relative affinity [1]: 258
relative affinity [2]: 1550
relative affinity [3]: 51

GEWTPTLQHYLSYTE-NH2 [CCNB1 359-373]
relative affinity [4]: 0.4
relative affinity [2]: 22
relative affinity [5]: 500
relative affinity [3]: 224
relative affinity [6]: 548
relative affinity [7]: 0.2

TALGDIGNKVSEQLQ-NH2 [CCNB1 43-57]
relative affinity [1]: 1790
relative affinity [7]: 300

RALNFGLGRPLPLHF-NH2 [CCNB1 291-305]
relative affinity [4]: 3
relative affinity [2]: 1000
relative affinity [5]: 1410
relative affinity [3]: 4
relative affinity [6]: 1
relative affinity [7]: 65

GAFCLALKILDNGEW-NH2 [CCNB1 347-361]
relative affinity [2]: 9
relative affinity [7]: 1

EQLQAKMPMKKEAKP-NH2 [CCNB1 54-68]
relative affinity [4]: 808
relative affinity [2]: 1410
relative affinity [3]: 35
relative affinity [6]: 3740

SDVILAVNDVDAEDG-NH2 [CCNB1 147-161]
relative affinity [5]: 54
relative affinity [7]: 7

QHYLSYTEESLLPVM-NH2 [CCNB1 366-380]
relative affinity [8]: 47
relative affinity [9]: 1
relative affinity [10]: 55
relative affinity [11]: 65
relative affinity [12]: 471
relative affinity [13]: 32
relative affinity [14]: 32
relative affinity [15]: 0.2
relative affinity [16]: 0.3

LDYDMVHFPPSQIAA-NH2 [CCNB1 332-346]
relative affinity [4]: 20
relative affinity [2]: 511
relative affinity [5]: 289
relative affinity [3]: 1580
relative affinity [6]: 224
relative affinity [7]: 36

AKMPMKKEAKPSATG-NH2 [CCNB1 58-72]
relative affinity [1]: 683
relative affinity [2]: 40

PGLRPRTALGDIGNK-NH2 [CCNB1 37-51]
relative affinity [1]: 422

SKIGEVDVEQHTLAK-NH2 [CCNB1 310-324]
relative affinity [17]: 306
relative affinity [1]: 1800
relative affinity [2]: 190
relative affinity [3]: 1500

KKMLQLVGVTAMFIA-NH2 [CCNB1 241-255]
relative affinity [8]: 1
relative affinity [9]: 0.1
relative affinity [10]: 90
relative affinity [11]: 1
relative affinity [12]: 1
relative affinity [13]: 3
relative affinity [15]: 424
relative affinity [16]: 35
relative affinity [18]: 15

NKYATSKHAKISTLP-NH2 [CCNB1 402-416]
relative affinity [4]: 9
relative affinity [2]: 4
relative affinity [5]: 707
relative affinity [3]: 1730
relative affinity [6]: 367

TGKVIDKKLPKPLEK-NH2 [CCNB1 71-85]
relative affinity [17]: 228
relative affinity [3]: 250

QAVRPKYLLGREVTG-NH2 [CCNB1 185-199]
relative affinity [1]: 4
relative affinity [2]: 22
relative affinity [5]: 260
relative affinity [3]: 1670
relative affinity [6]: 59

EDLCQAFSDVILAVN-NH2 [CCNB1 140-154]
relative affinity [17]: 161
relative affinity [5]: 1110
relative affinity [7]: 207

PKYLLGREVTGNMRA-NH2 [CCNB1 189-203]
relative affinity [17]: 764
relative affinity [2]: 3
relative affinity [5]: 34
relative affinity [6]: 17

SKINAENKAKINMAG-NH2 [CCNB1 9-23]
relative affinity [17]: 22
relative affinity [1]: 146
relative affinity [2]: 490
relative affinity [3]: 1000

DRFMQNNCVPKKMLQ-NH2 [CCNB1 231-245]
relative affinity [2]: 2000
relative affinity [5]: 52
relative affinity [3]: 1580
relative affinity [6]: 11

KDIYAYLRQLEEEQA-NH2 [CCNB1 172-186]
relative affinity [17]: 33
relative affinity [4]: 1600
relative affinity [1]: 5
relative affinity [2]: 1
relative affinity [3]: 775
relative affinity [6]: 42
relative affinity [7]: 11

EPVKEEKLSPEPILV-NH2 [CCNB1 108-122]
relative affinity [6]: 894

SQIAAGAFCLALKIL-NH2 [CCNB1 342-356]
relative affinity [8]: 21
relative affinity [19]: 57
relative affinity [9]: 20
relative affinity [10]: 3
relative affinity [13]: 46
relative affinity [14]: 239
relative affinity [15]: 79
relative affinity [16]: 25

KPLEKVPMLVPVPVS-NH2 [CCNB1 81-95]
relative affinity [5]: 500
relative affinity [6]: 524

LAVNDVDAEDGADPN-NH2 [CCNB1 151-165]
relative affinity [5]: 667

RQLEEEQAVRPKYLL-NH2 [CCNB1 179-193]
relative affinity [4]: 271
relative affinity [1]: 943
relative affinity [3]: 2160
relative affinity [6]: 9000

QGLTKHMTVKNKYAT-NH2 [CCNB1 392-406]
relative affinity [17]: 408
relative affinity [4]: 533
relative affinity [1]: 7
relative affinity [2]: 693
relative affinity [5]: 577
relative affinity [3]: 47

KHMTVKNKYATSKHA-NH2 [CCNB1 396-410]
relative affinity [4]: 533
relative affinity [1]: 9
relative affinity [2]: 7
relative affinity [5]: 408
relative affinity [6]: 7480
relative affinity [7]: 229

SPMETSGCAPAEEDL-NH2 [CCNB1 128-142]
relative affinity [6]: 3590
